What was measured:
SEC = target: the molecule itself; experiment: SEC
crystal structure = target: the molecule itself; experiment: crystal structure

B1: GB1_HP0315 (HP0315, a VapD protein from Helicobacter pylori, fused with the immunoglobulin-binding domain of streptococcal protein G) (natural protein, Helicobacter pylori 26695)
chain: MYALAFDLKIEILKKEYGEPYNKAYDDLRQELELLGFEWTQGSVYVNYSKENTLAQVYKAINKLSQIEWFKKSVRDIRAFKVEDFSDFTEIVKS
Q: For B1, which “stoichiometry N” value (SEC) is on record?
A: 2

B2: SeMet-substituted GB1_HP0315 (natural protein, Helicobacter pylori 26695)
chain: MYALAFDLKIEILKKEYGEPYNKAYDDLRQELELLGFEWTQGSVYVNYSKENTLAQVYKAINKLSQIEWFKKSVRDIRAFKVEDFSDFTEIVKS
modifications: selenomethionine in place of methionine (first methionine residue of GB1 and the methionine residue of HP0315)
Q: Does B2 bind (crystal structure)?
A: binds
